Kd data for two molecules are collected here from PMC4165468.

As a reminder, the Kd is the concentration at which binding is half-saturated. Lower therefore signals a tighter complex.

Like-named read-outs stand apart in the source and are kept apart here.

Holding throughout (assay): SPR
The target in data set [1] is T1, L7Ae-K (L7-K) (Archaeoglobus fulgidus, UniProt O29494 1-119, K37A).
For data set [2], the target named is T2, L7Ae (Archaeoglobus fulgidus, UniProt O29494 1-119).
The target in data set [3] is T2, L7Ae. This is another data set of the same source.
Data set [4] deals with T1, L7Ae-K (L7-K). The source holds these as a separate data set.

T2 sequence (O29494 whole entry): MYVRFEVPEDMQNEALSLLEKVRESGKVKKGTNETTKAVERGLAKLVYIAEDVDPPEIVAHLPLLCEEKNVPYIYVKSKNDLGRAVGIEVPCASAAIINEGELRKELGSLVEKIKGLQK
T1 sequence (O29494 whole entry K37A): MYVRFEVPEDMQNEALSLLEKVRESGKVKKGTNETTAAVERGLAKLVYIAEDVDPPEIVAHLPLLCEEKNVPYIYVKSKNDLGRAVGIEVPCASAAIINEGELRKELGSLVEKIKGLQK

Take GGAUCUGGGGUCUGAACGGUGAUGACCCGGAUCC (structured_RNA) [K-loop]: the Kd with L7Ae-K (L7-K) [1] was determined as 26 nM; with L7Ae [2], 2.2 nM.
On to GGAUCUGGGGCGUGAUCCGAAAGGUGACCCGGAUCC (structured_RNA) [K-turn], for which the values for the Kd with L7Ae [3] and in the data set with L7Ae-K (L7-K) [4] were 1.6 nM and 15 nM, respectively.
